Experimental findings from patent publication US20040204348A1 (ANGSTROM PHARMACEUTICALS, published 2004) are described below.

Bridges are numbered along the chain shown (N, C = ends). L10 (R1 : -NH-m-phenylene-NH2) = linker L10: -CO-CH2-NH-CO-CH2-CH2-CH(CO-NH-CH2-COR1)-NH- with R1 = -NH-m-phenylene-NH2; L10 (R1 : -NH-o-phenylene-NH2) = linker L10: -CO-CH2-NH-CO-CH2-CH2-CH(CO-NH-CH2-COR1)-NH- with R1 = -NH-o-phenylene-NH2; L10 (R1 : -NH-p-phenylene-NH2) = linker L10: -CO-CH2-NH-CO-CH2-CH2-CH(CO-NH-CH2-COR1)-NH- with R1 = -NH-p-phenylene-NH2; L15 (R1 : phenyl) = linker L15: -CO-CH2-NH-CO-CH2-CH2-CH(CO-NH-CH2-CO-NH-R1)-NH- with R1 = phenyl (anilide)

By IC50 is commonly meant the concentration that gives 50% inhibition. A higher IC50 goes with weaker potency in that assay. What is called Kd is the concentration at which binding is half-saturated. Higher therefore signals weaker binding.

B1: biotin-modified-RTLPPD (peptide)
peptide: VSNKYFSNIHW
modifications: linker N-C via L10 (R1 : -NH-p-phenylene-NH2); also: biotin-X (7-atom spacer) label, site not given here
notes: RTLPPD reacted with Biotin-X-sulfoNHS
B2: RTLMPD (peptide)
peptide: VSNKYFSNIHW
modifications: linker N-C via L10 (R1 : -NH-m-phenylene-NH2); also: cyclised by linker L10 between X1 N and X11 carbonyl
notes: also called isomer of RTLPPD incorporating m-phenylenediamine (MPD)
B3: Oregon Green-modified-RTLPPD (peptide)
peptide: VSNKYFSNIHW
modifications: linker N-C via L10 (R1 : -NH-p-phenylene-NH2); also: Oregon Green (5/6-isomer mix) label, site not certain (intended on phenylenediamine amine)
notes: RTLPPD reacted with Oregon Green isothiocyanate; also called Oregon Green-labeled-RTLPPD
B4: receptor targeting ligand-p-phenylenediamine derivative (RTLPPD) (peptide)
peptide: VSNKYFSNIHW
modifications: linker N-C via L10 (R1 : -NH-p-phenylene-NH2); also: cyclised by linker L10 between X1 N and X11 carbonyl
B5: RTLOPD (peptide)
peptide: VSNKYFSNIHW
modifications: linker N-C via L10 (R1 : -NH-o-phenylene-NH2); also: cyclised by linker L10 between X1 N and X11 carbonyl
notes: also called isomer of RTLPPD incorporating o-phenylenediamine (OPD)
B6: Å36 (peptide)
peptide: VSNKYFSNIHW
modifications: linker N-C via L15 (R1 : phenyl); also: cyclised by linker L15 between X1 N and X11 carbonyl
notes: also called A36; cyclic peptide Å36

The target in one assay is T1, uPAR expressed on cells (RKO human colon carcinoma cells, HeLa cells, stimulated HUVEC) (human, UniProt Q03405 23-305).
T1 construct: whole, on cells; GPI-anchored receptor on whole cells
T1 sequence (Q03405 23-305): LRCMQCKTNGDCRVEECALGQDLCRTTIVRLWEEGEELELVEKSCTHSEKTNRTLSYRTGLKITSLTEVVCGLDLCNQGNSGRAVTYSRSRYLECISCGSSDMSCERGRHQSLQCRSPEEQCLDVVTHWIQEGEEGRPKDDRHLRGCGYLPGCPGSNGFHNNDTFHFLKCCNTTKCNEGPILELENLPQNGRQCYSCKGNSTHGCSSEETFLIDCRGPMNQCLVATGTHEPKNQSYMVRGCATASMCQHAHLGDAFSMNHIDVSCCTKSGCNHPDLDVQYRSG
In words: competition with 0.2 nM [125I]DFP-uPA on RKO cells, 4 C. The method, then:
The compounds of the invention were tested for their binding to uPAR by measuring their ability to inhibit the binding of [¹²⁵I]DFP-uPA (catalytically inactivated high molecular weight uPA) to uPAR expressed by RKO (human colon carcinoma) cells. Cells (about 5×10⁴/well) were plated (in MEM with Earle's salts/10% FBS+antibiotics) in 24-well plates, then incubated in a humid 5% CO₂ atmosphere until the cells reach 70% confluence. Catalytically inactivated high molecular weight uPA (DFP-uPA) was radioiodinated using Iodo-gen® (Pierce) to a specific activity of about 250,000 cpm/mg. The cell-containing plates were then chilled on ice and the cells were washed twice (5 minutes each) with cold PBS/0.05% Tween-80. Test compounds were serially diluted in cold PBS/0.1% BSA/0.01% Tween-80 and added to each well to a final volume of 0.3 mL 10 minutes prior to the addition of the [¹²⁵I]DFP-uPA. Each well then receives 9500 cpm of [¹²⁵I]DFP-uPA at a final concentration of 0.2 nM. The plates were incubated at 4° C. for 2 hrs, after which time the cells were washed 3× (5 minutes each) with cold PBS/0.05% Tween-80. NaOH (1N; 0.5 mL) was added to each well to lyse the cells, the contents of each well were aspirated and the total counts in each well determined using a gamma counter. Each compound was tested in triplicate and the results are expressed as a percentage of the total radioactivity measured in wells containing [¹²⁵I]DFP-uPA alone, which is taken to represent maximum (100%) binding.
RTLPPD inhibited the binding of [¹²⁵I]DFP-uPA with an IC₅₀ of approximately 5 nM (FIG. 3). Modification of RTLPPD with Oregon Green shifted the IC₅₀ to approximately 800 nM (FIG. 3) and modification with biotin shifted the IC₅₀ to approximately 1.1 μM (FIG. 4). RTLMPD and RTLOPD inhibited the binding of [¹²⁵I]DFP-uPA to RKO cells with an IC₅₀ of approximately 50 and 100 nM , respectively (FIG. 3).
With B1, the IC50 is around 1.1 µM. The same measure, in the same setting: the same measure for B2: around 0.05 µM; for B3: around 0.8 µM; for B4: around 0.005 µM. Same read-out and setting: next, B5: around 0.1 µM.

The next assay has as its target T1, uPAR expressed on cells (RKO human …). Description: whole-cell competition with [125I]DFP-uPA on HeLa cells, as the method is described; competition for binding to HeLa cells, not BIAcor. The method, then: HeLa cells (about 5×10⁴/well) were plated in medium MEM with Earle's salts/10% FBS+antibiotics) in 24-well plates, then incubated in a humid 5% CO₂ atmosphere until the cells reached 70% confluence. Catalytically inactivated high molecular weight uPA (DFP-uPA) labeled with radioactive ¹²⁵I (specific activity 250,000 cpm/mg) served as the uPAR label. Plates in which the cells were incubated were chilled on ice and the cells were washed twice (5 minutes each) with cold PBS/0.05% Tween-80. DFP-UPA and Å36 were serially diluted in cold PBS/0.1% BSA/0.01% Tween-80 and added to each well to a final volume of 0.3 mL 10 minutes prior to the addition of [¹²⁵I]DFP-UPA. Each well then received 9500 cpm of [¹²⁵I]DFP-UPA at a final concentration of 0.2 nM). The plates were incubated at 4° C. for 2 hrs, after which the cells are washed 3× (5 minutes each) with cold PBS/0.05% Tween-80. Cells were lysed by addition of NaOH (1N) 0.5 mL/well for 5 minutes at room temperature or until all the cells in each well were lysed by microscopic examination. The contents of each well were aspirated, and the total counts in each well were determined using a gamma counter. Each compound was tested in triplicate and the results were expressed as a percentage of the total radioactivity measured in wells containing [¹²⁵I]DFP-uPA alone, which is taken to represent maximum (100%) binding.
On to B6, for which binding was put at a Kd of 0.03 µM.
